Results taken from article PMC2185538, “Purification of the full-length Xenopus interphotoreceptor retinoid binding protein and growth of diffraction-quality crystals” (Molecular Vision, 2007).

Target: the molecule itself
Assay: SEC; Sephacryl S-300HR 2.6 x 100 cm, 25 mM Tris-HCl pH 7.5 at 4 °C, 50 mM NaCl, 1 mM DTT; dimer between elution volumes 212 and 250 ml

B1: recombinant full-length four-module Xenopus interphotoreceptor retinoid-binding protein (natural protein)
chain: not shown
notes: begins FQPSL; also called xIRBP; Xenopus IRBP; source: E. coli Top10, thioredoxin fusion cleaved with enterokinase, purified (HisTrap twice, Sephacryl S-300HR); not shown: thioredoxin with His-patch, N-terminal, cleaved
stoichiometry N: 2
